PMC4783047, “Determinants of Amyloid Formation for the Yeast Termination Factor Nab3” (PLoS ONE, 2016)
One block for each molecule: values may come before it.

What was measured:
thioflavin T = experiment: Thioflavin T fluorescence; conditions: value read at the wild-type emission peak, about 480 nm; the mutant trace lies on the zero line over the whole 460-595 nm spectrum; parent: est. 66; read off a plot
[1] = target: the molecule itself; experiment: transmission electron microscopy of filaments (negative stain); purified, concentrated protein left undisturbed (4°C, or 4°C or 22°C for the LCD proteins) for days to weeks; 1% phosphotungstic acid stain; self-assembly into filaments

response (thioflavin T): 0
Molecule: Nab3 low complexity domain, C-terminal 134 amino acids of Nab3 (Nab3^134) (from UniProt P38996) Q2E; Q7E; Q9E; Q15E; Q30E; Q32E; Q34E; Q39E; Q41E; Q47E; Q50E; Q52E; Q55E; Q57E; Q59E; Q82E; Q96E; Q101E; Q105E; Q107E; Q109E; Q111E; Q113E; Q115E

B1: Pcf11 low complexity domain (residues 228-287) (domain or fragment, yeast, UniProt P39081 228-287, looked up)
chain: MRYHELQQQQQQQQQQQQQQQQQQQQYHETKDMVGSYTQNSNSAIPLFGNNSDTTNQQNS
notes: Pcf11, yeast transcription termination factor, codon 228 to codon 287 (core prion-like domain as defined by Alberti et al.); Inserted between the BglII and XhoI sites of pET32a; also called Pcf11 LCD; Pcf11's LCD; source: E. coli, pET32-Pcf11-LCD (synthetic gene), thioredoxin fusion, purified (HisTrap, thrombin cleavage, second HisTrap)
binding result [1]: binds

B2: Nab3^134 with the last 18 amino acids of Nab3 deleted (Nab3^134Δα) (domain or fragment, S. cerevisiae, UniProt P38996 669-784, looked up)
chain: SQTPMDQQQLLSAIQNLPPNVVSNLLSMAQQQQQQPHAQQQLVGLIQSMQGQAPQQQQQQLGGYSSMNSSSPPPMSTNYNGQNISAKPSAPPMSHQPPPPQQQQQQQQQQQQQQQQ
notes: Same vector as m1, so an S-tag is probably left after thrombin cleavage
binding result [1]: binds

B3: Full-length Nab3 (natural protein, S. cerevisiae, UniProt P38996 1-802, looked up)
chain: MSDENHNSDVQDIPSPELSVDSNSNENELMNNSSADDGIEFDAPEEEREAEREEENEEQHELEDVNDEEEEDKEEKGEENGEVINTEEEEEEEHQQKGGNDDDDDDNEEEEEEEEDDDDDDDDDDDDEEEEEEEEEEGNDNSSVGSDSAAEDGEDEEDKKDKTKDKEVELRRETLEKEQKDVDEAIKKITREENDNTHFPTNMENVNYDLLQKQVKYIMDSNMLNLPQFQHLPQEEKMSAILAMLNSNSDTALSVPPHDSTISTTASASATSGARSNDQRKPPLSDAQRRMRFPRADLSKPITEEEHDRYAAYLHGENKITEMHNIPPKSRLFIGNLPLKNVSKEDLFRIFSPYGHIMQINIKNAFGFIQFDNPQSVRDAIECESQEMNFGKKLILEVSSSNARPQFDHGDHGTNSSSTFISSAKRPFQTESGDMYNDDNGAGYKKSRRHTVSCNIFVKRTADRTYAIEVFNRFRDGTGLETDMIFLKPRMELGKLINDAAYNGVWGVVLVNKTHNVDVQTFYKGSQGETKFDEYISISADDAVAIFNNIKNNRNNSRPTDYRAMSHQQNIYGAPPLPVPNGPAVGPPPQTNYYQGYSMPPPQQQQQQPYGNYGMPPPSHDQGYGSQPPIPMNQSYGRYQTSIPPPPPQQQIPQGYGRYQAGPPPQPPSQTPMDQQQLLSAIQNLPPNVVSNLLSMAQQQQQQPHAQQQLVGLIQSMQGQAPQQQQQQLGGYSSMNSSSPPPMSTNYNGQNISAKPSAPPMSHQPPPPQQQQQQQQQQQQQQQQPAGNNVQSLLDSLAKLQK
notes: Nab3, S. cerevisiae transcription termination factor, 802 amino acids; also called full-length wildtype Nab3; the entire 802-residue protein
binding result [1]: binds

B4: Nab3 low complexity domain, C-terminal 134 amino acids of Nab3 (Nab3^134) (domain or fragment, S. cerevisiae, UniProt P38996 669-802, looked up)
chain: SQTPMDQQQLLSAIQNLPPNVVSNLLSMAQQQQQQPHAQQQLVGLIQSMQGQAPQQQQQQLGGYSSMNSSSPPPMSTNYNGQNISAKPSAPPMSHQPPPPQQQQQQQQQQQQQQQQPAGNNVQSLLDSLAKLQK
notes: Inserted between the BglII and XhoI sites of pET32a; also called Nab3 LCD; wildtype LCD
binding result [1]: binds
